Target: T1, Hfq_(S65C)-Flag (P. aeruginosa, UniProt Q9HUM0 1-82, S65C)
T1 construct: also called Hfq S65C-Flag protomer of Hfq*; source: E. coli JW4130F'Δhfq(pKEHfqPae); not shown: FLAG, C-terminal, kept
Assay: co-IP
Details: both partners purified

B1: P. aeruginosa Hfq, wild type (natural protein)
chain: MSKGHSLQDPYLNTLRKERVPVSIYLVNGIKLQGQIESFDQFVILLKNTVSQMVYKHAISTVVPSRPVRLPSGDQPAEPGNA
notes: RNA chaperone Hfq of Pseudomonas aeruginosa, wild type, from plasmid pKEHfqPae; In the row with m4 the wild-type protomer inside the mixed hexamer is meant; also called Hfq wt; Pae Hfq; source: for Hfq* co-produced with Hfq_(S65C)-Flag in the same strain
stoichiometry N: 1 Hfq wt per Hfq_(S65C)-Flag
